Article PMC8983731, “Structural basis for the SUMO protease activity of the atypical ubiquitin-specific protease USPL1” (Nature Communications, 2022)

Key:
[1] = target: T1, ∆14-SUMO2 precursor C48S/G93C with dehydroalanine at position 93 (SUMO2-DHA) (human, UniProt P61956 15-95, C48S | G93C, dehydroalanine (DHA) at position 93 (made from Cys93 of G93C with 2,5-dibromohexanediamide)); test: cell-based or functional assay
[2] = target: T1, ∆14-SUMO2 precursor C48S/G93C with …; test: cross-linking; active site probe assay: protease at 2 μM with SUMO2-DHA at 6 μM, 30 °C, 3 h; formation of the covalent thioether adduct; USPL1 wild type and mutants for 3 h; conditions: both partners purified

T1 sequence (P61956 15-95 C48S/G93C): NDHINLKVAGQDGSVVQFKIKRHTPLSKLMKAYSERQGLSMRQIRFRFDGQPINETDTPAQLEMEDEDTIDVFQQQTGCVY

B1: USPL1 catalytic domain Y451F (enzyme, human, UniProt Q5W0Q7 212-514, looked up)
chain: MPLESKCTSFPQALCVQWKNAYALCWLDCILSALVHSEELKNTVTGLCSKEESIFWRLLTKYNQANTLLYTSQLSGVKDGDCKKLTSEIFAEIETCLNEVRDEIFISLQPQLRCTLGDMESPVFAFPLLLKLETHIEKLFLYSFSWDFECSQCGHQYQNRHMKSLVTFTNVIPEWHPLNAAHFGPCNNCNSKSQIRKMVLEKVSPIFMLHFVEGLPQNDLQHYAFHFEGCLYQITSVIQFRANNHFITWILDADGSWLECDDLKGPCSERHKKFEVPASEIHIVIWERKISQVTDKEAACLPL
notes: USPL1, human, catalytic domain Met212-Leu514, point mutant; Made by site-directed mutagenesis of pET28a-USPL1CD; source: E. coli Rosetta (DE3), purified (Ni Sepharose, Resource Q anion exchange); not shown: His tag (from the vector pET28a)
[1]
  proteolytic activity against SUMO2 substrates, fold decrease against wild type: 4 fold
[2]
  fold decrease of binding against wild type: 4 fold
